Test results from patent US12427210B2, “Compounds comprising a fibroblast activation protein ligand and use thereof” (priority 2019, dated 2025).

Assays:
mu (MOP) (h) (human) = mu (MOP) (h) (human) (UniProt P35372); test: radioligand displacement, reference compound of the assay (Ki Ref)
delta (DOP) (h) (human) = delta (DOP) (h) (human) (UniProt P41143); test: as above

| Substance | Ki (mu (MOP) (h) (human)) [nM] | Ki (delta (DOP) (h) (human)) [nM] |
| --- | --- | --- |
| DAMGO (peptide) | 0.37 | – |
| DPDPE (peptide) | – | 1.2 |
